The source of these data is article PMC8754651, “Three human RNA polymerases interact with TFIIH via a common RPB6 subunit” (Nucleic Acids Research, 2021).

The chains are these.
B1: human RPB6 (residues 1–24), NTT peptide (peptide, UniProt P61218 1-24, looked up)
peptide: MSDNEDNFDGDDFDDVEEDEGLDD
notes: RPB6, human, N-terminal tail (NTT), residues 1-24; also called NTT peptide derived from human RPB6
B2: human RPB6 (residues 1–24) V16A (peptide, UniProt P61218 1-24, looked up)
peptide: MSDNEDNFDGDDFDDAEEDEGLDD
notes: RPB6, human, N-terminal tail, residues 1-24, with V16A
B3: human RPB6 (residues 1–24) S2A (peptide, UniProt P61218 1-24, looked up)
peptide: MADNEDNFDGDDFDDVEEDEGLDD
notes: RPB6, human, N-terminal tail, residues 1-24, with Ser2 substituted to alanine; also called Ser2 alanine substitution
B4: human RPB6 (residues 1–24) F13A-V16A (peptide, UniProt P61218 1-24, looked up)
peptide: MSDNEDNFDGDDADDAEEDEGLDD
notes: RPB6, human, N-terminal tail, residues 1-24, with F13A and V16A; also called F13A-V16A double mutation
B5: human RPB6 (residues 1–24) F8A (peptide, UniProt P61218 1-24, looked up)
peptide: MSDNEDNADGDDFDDVEEDEGLDD
notes: RPB6, human, N-terminal tail, residues 1-24, with F8A
B6: human RPB6 (residues 1–24) F13A (peptide, UniProt P61218 1-24, looked up)
peptide: MSDNEDNFDGDDADDVEEDEGLDD
notes: RPB6, human, N-terminal tail, residues 1-24, with F13A
B7: human TFIIH p62 PH domain (PH-D) (residues 1–108) (domain or fragment)
chain: MATSSEEVLLIVKKVRQKKQDGALYLMAERIAWAPEGKDRFTISHMYADIKCQKISPEGKAKIQLQLVLHAGDTTNFHFSNESTAVKERDAVKDLLQQLLPKFKRKAN
notes: p62 subunit of the general transcription/repair factor TFIIH, human, N-terminal pleckstrin homology (PH) domain, residues 1-108; Unlabeled, 15N-labeled or 13C/15N-labeled according to the experiment; Expressed from pET15b; a few vector residues may remain after thrombin cleavage (surmise); source: E. coli BL21 (DE3) Gold, purified (Ni-NTA, thrombin digestion, Superdex75)

The target of test [1] is B7. As to the kind of experiment: ITC; 100∼300 μM RPB6/Rpb6 peptide in the syringe titrated into 10–30 μM p62 PH-D in the cell; 20 mM potassium phosphate (pH 6.8) with or without 25 mM NaCl, 20°C; VP-ITC. The note with it: both partners purified.
Test [2] concerns the target human RPB6 (residues 1–127), full-length (human, UniProt P61218 1-127). As to the kind of experiment: NMR structure; complex at 0.38 mM, 13C/15N-labeled RPB6 with unlabeled p62 PH-D at 1.0:2.0 (and 13C/15N-labeled p62 PH-D with unlabeled RPB6); 20 mM potassium phosphate (pH 6.8), 25 mM NaCl, 5 mM deuterated DTT, 25°C; intermolecular NOEs. The note with it: both partners purified.

As to B1, the binding result in test [1] is listed as “binds”.
B2: in test [1], the binding result is listed as “binds”.
Still for that read-out and setting: as for B3, the entry is “binds”; as for B4, “binds”.
For B5, in test [1], the binding result was “binds”.
On the same count and under the same terms, as for B6, the entry is “binds”.
As for B7, in test [2], the binding result is “binds”.
